This passage reports IC50 results from patent US20020082414A1.

Usually IC50 stands for the point on the concentration scale where inhibition reaches its midpoint. Higher therefore signals weaker potency in that assay.

Experiment [1] has as its target human ETB-receptor (ET-receptor derived from pHETBR31 and pHETBR34) (human) (UniProt P24530). The experiment is described as follows: displacement of 125I-ET-1 from COS-7 cells expressing the ETB-receptor.
In experiment [2] the target is human ETA-receptor (ET-receptor derived from phETIR) (human) (UniProt P25101). The experiment is described as follows: displacement of 50 pM 125I-ET-1 from COS-7 cells expressing the ETA-receptor.
Chain of human ETA-receptor (ET-receptor derived from phETIR) (human) (P25101 21-427 limits assumed, form in doubt): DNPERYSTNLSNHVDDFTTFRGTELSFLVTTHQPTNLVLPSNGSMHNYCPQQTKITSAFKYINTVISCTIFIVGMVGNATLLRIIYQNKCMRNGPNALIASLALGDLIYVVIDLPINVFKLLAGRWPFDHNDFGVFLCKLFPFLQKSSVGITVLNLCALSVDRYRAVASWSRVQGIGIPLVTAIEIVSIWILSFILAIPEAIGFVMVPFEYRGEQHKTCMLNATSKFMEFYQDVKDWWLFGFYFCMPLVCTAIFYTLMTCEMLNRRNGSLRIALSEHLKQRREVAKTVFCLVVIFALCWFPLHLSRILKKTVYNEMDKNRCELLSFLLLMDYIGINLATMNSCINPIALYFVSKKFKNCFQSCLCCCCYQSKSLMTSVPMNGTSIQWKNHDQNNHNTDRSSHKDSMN

Chain of human ETB-receptor (ET-receptor derived from pHETBR31 and pHETBR34) (human) (P24530 27-442 limits assumed, form in doubt): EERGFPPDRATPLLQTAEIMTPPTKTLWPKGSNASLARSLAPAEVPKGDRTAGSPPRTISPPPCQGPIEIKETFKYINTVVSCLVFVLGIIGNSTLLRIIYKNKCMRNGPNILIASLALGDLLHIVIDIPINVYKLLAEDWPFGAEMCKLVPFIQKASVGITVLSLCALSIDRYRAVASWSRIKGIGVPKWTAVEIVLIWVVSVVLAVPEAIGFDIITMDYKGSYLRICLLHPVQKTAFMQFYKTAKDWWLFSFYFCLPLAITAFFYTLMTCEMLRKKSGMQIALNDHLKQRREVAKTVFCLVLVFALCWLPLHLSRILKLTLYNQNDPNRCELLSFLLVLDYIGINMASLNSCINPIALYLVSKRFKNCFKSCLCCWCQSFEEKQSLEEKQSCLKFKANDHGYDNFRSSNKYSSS

Take “Endothelin 3 (from UniProt P14138 97-117) (peptide)”: the IC50 in experiment [1] came to 1 nM. Take “Endothelin 2 (from UniProt P20800 49-69) (peptide)”: the IC50 in experiment [1] stood at 1 nM; in experiment [2] it was 6.1 nM.
